Experimental data taken from patent US20210107998A1 (Boehringer Ingelheim, published 2021).
Blank lines part the entries; values can stand above or below the binder they belong to.

What was measured:
Test in all cases: cell-based or functional assay
[1] = target: membrane-bound human BAFF on fixed CHO-K1 cells (human, UniProt Q9Y275 1-285)
[2] = target: T1, Recombinant human BAFF trimer (Boehringer Ingelheim Pharmaceuticals, Inc.) (human, UniProt Q9Y275 134-285, limits assumed)
[3] = target: Recombinant human BAFF 60mer (Boehringer Ingelheim Pharmaceuticals, Inc.) (human, UniProt Q9Y275 134-285, limits assumed)
[4] = target: T1, Recombinant human BAFF trimer …; remark: listed apart in the source
[5] = target: Recombinant cynomolgus BAFF trimer (Boehringer Ingelheim Pharmaceuticals, Inc.) (cynomolgus, UniProt A0A2K5V2X4 134-285)
Recombinant human IL-23 [6] = target: T2, Recombinant human IL-23 (human, UniProt P29460 23-328)
T2 sequence 1: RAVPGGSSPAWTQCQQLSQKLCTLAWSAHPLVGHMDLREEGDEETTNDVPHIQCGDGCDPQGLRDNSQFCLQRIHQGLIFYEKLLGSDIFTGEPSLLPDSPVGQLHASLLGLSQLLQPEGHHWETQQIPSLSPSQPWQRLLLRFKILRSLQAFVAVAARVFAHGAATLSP
T2 sequence 2: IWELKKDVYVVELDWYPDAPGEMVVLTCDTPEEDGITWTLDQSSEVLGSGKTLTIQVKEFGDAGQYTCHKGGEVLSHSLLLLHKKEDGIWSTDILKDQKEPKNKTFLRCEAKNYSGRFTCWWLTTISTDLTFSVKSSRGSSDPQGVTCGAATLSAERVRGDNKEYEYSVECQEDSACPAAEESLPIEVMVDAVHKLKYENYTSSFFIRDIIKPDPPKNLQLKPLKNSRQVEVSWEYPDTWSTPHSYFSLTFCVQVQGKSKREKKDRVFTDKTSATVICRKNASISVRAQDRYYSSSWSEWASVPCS

cynomolgus IL-23 = cynomolgus IL-23 (cynomolgus, UniProt H6WS56 20-189)
Recombinant human IL-23 [7] = target: T2, Recombinant human IL-23; remark: listed apart in the source

IC50, NFkB luciferase reporter, human BAFFR-CHO cells stimulated with fixed human BAFF CHO-K1 cells [1]: 0.553 nM | IC90, NFkB luciferase reporter, human BAFFR-CHO cells stimulated with fixed human BAFF CHO-K1 cells [1]: 10.1 nM | IC50 Geomean, NFkB luciferase reporter, human TACI-CHO cells [2]: 0.273 nM | IC90 Geomean, NFkB luciferase reporter, human TACI-CHO cells [2]: 0.576 nM | IC50, NFkB luciferase reporter, human BAFFR-CHO cells [3]: 24.1 nM | IC90, NFkB luciferase reporter, human BAFFR-CHO cells [3]: 180 nM | IC50, NFkB luciferase reporter, human BAFFR-CHO cells [4]: 0.232 nM | IC90, NFkB luciferase reporter, human BAFFR-CHO cells [4]: 0.743 nM | IC50 Geomean, NFkB luciferase reporter, human BAFFR-CHO cells [5]: 0.288 nM | IC90 Geomean, NFkB luciferase reporter, human BAFFR-CHO cells [5]: 0.635 nM
B1: Control Antibody 1 (anti-BAFF monoclonal antibody) (BAFF (1)) (antibody, V domains shown)
VH: QVQLQQSGAEVKKPGSSVRVSCKASGGTFNNNAINWVRQAPGQGLEWMGGIIPMFGTAKYSQNFQGRVAITADESTGTASMELSSLRSEDTAVYYCARSRDLLLFPHHALSPWGRGTMVTVSS
VL: SSELTQDPAVSVALGQTVRVTCQGDSLRSYYASWYQQKPGQAPVLVIYGKNNRPSGIPDRFSGSSSGNTASLTITGAQAEDEADYYCSSRDSSGNHWVFGGGTELTVL

IC50, IL-23-induced mouse IL-17 release from mouse splenocytes (Recombinant human IL-23 [6]): 0.084 nM | IC90, IL-23-induced mouse IL-17 release from mouse splenocytes (Recombinant human IL-23 [6]): 0.366 nM | IC50, IL-23-induced mouse IL-17 release from mouse splenocytes (cynomolgus IL-23): 0.064 nM | IC90, IL-23-induced mouse IL-17 release from mouse splenocytes (cynomolgus IL-23): 0.331 nM | IC50, STAT3-luciferase reporter in DB lymphoblast B cells (Recombinant human IL-23 [7]): 0.079 nM | IC90, STAT3-luciferase reporter in DB lymphoblast B cells (Recombinant human IL-23 [7]): 0.634 nM
B2: Control Antibody 4 (anti-IL-23A monoclonal antibody) (IL-23A (1)) (antibody, V domains shown)
VH: QVQLVQSGAEVKKPGSSVKVSCKASGYTFTDQTIHWMRQAPGQGLEWIGYIYPRDDSPKYNENFKGKVTITADKSTSTAYMELSSLRSEDTAVYYCAIPDRSGYAWFIYWGQGTLVTVSS
VL: DIQMTQSPSSLSASVGDRVTITCKASRDVAIAVAWYQQKPGKVPKLLIYWASTRHTGVPSRFSGSGSRTDFTLTISSLQPEDVADYFCHQYSSYPFTFGSGTKLEIK

IC50, NFkB luciferase reporter, human BAFFR-CHO cells [3]: 1.55 nM | IC90, NFkB luciferase reporter, human BAFFR-CHO cells [3]: 6.84 nM | IC50, NFkB luciferase reporter, human BAFFR-CHO cells [4]: 0.106 nM | IC90, NFkB luciferase reporter, human BAFFR-CHO cells [4]: 0.361 nM
B3: Compound X (bispecific antibody, human IgG4 S228P, kappa)
chain 1: SSELTQDPAVSVALGQTVRVTCQGDSLRSYYASWYQQKPGQAPVLVIYGKNNRPSGIPDRFSGSSSGNTASLTITGAQAEDEADYYCSSRDSSGNHWVFGGGTELTVLGGGSGGGGQVQLVQSGAEVKKPGSSVKVSCKASGYTFTDQTIHWMRQAPGQGLEWIGYIYPRDDSPKYNENFKGKVTITADKSTSTAYMELSSLRSEDTAVYYCAIPDRSGYAWFIYWGQGTLVTVSSLGGGSGASTKGPSVFPLAPCSRSTSESTAALGCLVKDYFPEPVTVSWNSGALTSGVHTFPAVLQSSGLYSLSSVVTVPSSSLGTKTYTCNVDHKPSNTKVDKRVESKYGPPCPPCPAPEFLGGPSVFLFPPKPKDTLYITREPEVTCVVVDVSQEDPEVQFNWYVDGVEVHNAKTKPREEQFNSTYRVVSVLTVLHQDWLNGKEYKCKVSNKGLPSSIEKTISKAKGQPREPQVYTLPPSQEEMTKNQVSLTCLVKGFYPSDIAVEWESNGQPENNYKTTPPVLDSDGSFFLYSRLTVDKSRWQEGNVFSCSVMHEALHNHYTQKSLSLSLG
chain 2: DIQMTQSPSSLSASVGDRVTITCKASRDVAIAVAWYQQKPGKVPKLLIYWASTRHTGVPSRFSGSGSRTDFTLTISSLQPEDVADYFCHQYSSYPFTFGSGTKLEIKGGGSGGGGQVQLQQSGAEVKKPGSSVRVSCKASGGTFNNNAINWVRQAPGQGLEWMGGIIPMFGTAKYSQNFQGRVAITADESTGTASMELSSLRSEDTAVYYCARSRDLLLFPHHALSPWGRGTMVTVSSLGGGSGRTVAAPSVFIFPPSDEQLKSGTASVVCLLNNFYPREAKVQWKVDNALQSGNSQESVTEQDSKDSTYSLSSTLTLSKADYEKHKVYACEVTHQGLSSPVTKSFNRGEC

IC50, NFkB luciferase reporter, human BAFFR-CHO cells [3]: 0.005 nM | IC90, NFkB luciferase reporter, human BAFFR-CHO cells [3]: 0.016 nM | IC50, NFkB luciferase reporter, human BAFFR-CHO cells [4]: 0.03 nM | IC90, NFkB luciferase reporter, human BAFFR-CHO cells [4]: 0.139 nM
B4: Compound R (bispecific antibody, human IgG4 S228P, kappa)
chain 1: DIQMTQSPSSLSASVGDRVSITCKASQNAGIDVAWFQQKPGKAPKLLIYSKSNRYTGVPSRFSGSGSGTDFTLTISSLQPEDFATYYCLQYRSYPRTFGQGTKLEIKGGGSGGGGQVQLVQSGAEVKKPGSSVKVSCKASGYTFTDQTIHWMRQAPGQGLEWIGYIYPRDDSPKYNENFKGKVTITADKSTSTAYMELSSLRSEDTAVYYCAIPDRSGYAWFIYWGQGTLVTVSSLGGGSGASTKGPSVFPLAPCSRSTSESTAALGCLVKDYFPEPVTVSWNSGALTSGVHTFPAVLQSSGLYSLSSVVTVPSSSLGTKTYTCNVDHKPSNTKVDKRVESKYGPPCPPCPAPEFLGGPSVFLFPPKPKDTLYITREPEVTCVVVDVSQEDPEVQFNWYVDGVEVHNAKTKPREEQFNSTYRVVSVLTVLHQDWLNGKEYKCKVSNKGLPSSIEKTISKAKGQPREPQVYTLPPSQEEMTKNQVSLTCLVKGFYPSDIAVEWESNGQPENNYKTTPPVLDSDGSFFLYSRLTVDKSRWQEGNVFSCSVMHEALHNHYTQKSLSLSLG
chain 2: DIQMTQSPSSLSASVGDRVTITCKASRDVAIAVAWYQQKPGKVPKLLIYWASTRHTGVPSRFSGSGSRTDFTLTISSLQPEDVADYFCHQYSSYPFTFGSGTKLEIKGGGSGGGGQVQLVQSGAEVKKPGASVKVSCKASGYSFSTFFIHWVRQAPGQGLEWIGRIDPNSGATKYNEKFESRVTMTRDTSISTAYMELSRLRSDDTAVYYCARGEDLLIRTDALDYWGQGTSVTVSSLGGGSGRTVAAPSVFIFPPSDEQLKSGTASVVCLLNNFYPREAKVQWKVDNALQSGNSQESVTEQDSKDSTYSLSSTLTLSKADYEKHKVYACEVTHQGLSSPVTKSFNRGEC
